Results on 41 substances are retold here after PMC4226571, “The E6AP Binding Pocket of the HPV16 E6 Oncoprotein Provides a Docking Site for a Small Inhibitory Peptide Unrelated to E6AP, Indicating Druggability of E6” (PLoS ONE, 2014).

Common to all, as to assay: mammalian two-hybrid
Details in all cases: HeLa cells; read off a plot

In assay [1] the target is E6APpep fused to the GAL4 DNA binding domain.
For assay [2], the target named is pep11** fused to the GAL4 DNA binding domain.
Assay [3] deals with E6APpep fused to the GAL4 DNA binding domain. This is another data set of the same source.
Assay [4] concerns the target pep11** fused to the GAL4 DNA binding domain. The source holds these as a separate data set.

On to “wildtype HPV16 E6 fused to the VP16 transcriptional activation domain (from UniProt P03126) Q35A”, for which the percent of parent in assay [1] came to 110%; in assay [2], 100%.
For the substance “wildtype HPV16 E6 fused to the VP16 transcriptional activation domain (from UniProt P03126) Y70A”, the percent of parent in assay [1] worked out at 99%; in assay [2], 57%; in assay [3], 99%; in assay [4], 57%.
For “wildtype HPV16 E6 fused to the VP16 transcriptional activation domain (from UniProt P03126) K122A”, the percent of parent in assay [1] was 110%; in assay [2], 170%.
With “wildtype HPV16 E6 fused to the VP16 transcriptional activation domain (from UniProt P03126) C51F”, the percent of parent in assay [1] and in assay [2] was 110% in each case.
As to “wildtype HPV16 E6 fused to the VP16 transcriptional activation domain (from UniProt P03126) L119E”, the percent of parent came out at 88% in assay [1] and 100% in assay [2].
For the substance “wildtype HPV16 E6 fused to the VP16 transcriptional activation domain (from UniProt P03126) R131E”, the results for the percent of parent in assay [1] and in assay [2] were 41% and 49%, respectively.
Taken in the same sequence, the figures for “wildtype HPV16 E6 fused to the VP16 transcriptional activation domain (from UniProt P03126) K121A” were 120% and 170%.
As to “wildtype HPV16 E6 fused to the VP16 transcriptional activation domain (from UniProt P03126) R55A”, the percent of parent in assay [1] came out at 64%; in assay [2] it was 130%; in assay [3], 64%; in assay [4], 130%.
With “wildtype HPV16 E6 fused to the VP16 transcriptional activation domain (from UniProt P03126) K108A”, the results for the percent of parent in assay [1] and in assay [2] were 93% and 140%, respectively.
As for “wildtype HPV16 E6 fused to the VP16 transcriptional activation domain (from UniProt P03126) H126A”, the percent of parent in assay [1] was 80%; in assay [2] it was 110%.
With “wildtype HPV16 E6 fused to the VP16 transcriptional activation domain (from UniProt P03126) L100A”, the percent of parent in assay [1] and in assay [2] was 130% in each case.
Consider “wildtype HPV16 E6 fused to the VP16 transcriptional activation domain (from UniProt P03126) D120K”, for which the percent of parent in assay [1] was 100%; in assay [2] it was 91%.
For “wildtype HPV16 E6 fused to the VP16 transcriptional activation domain (from UniProt P03126) Y32A” the same measures were 53% and 7%.
Turning to “wildtype HPV16 E6 fused to the VP16 transcriptional activation domain (from UniProt P03126) D64H”, the percent of parent came out at 64% in assay [1] and 57% in assay [2].
For the substance “wildtype HPV16 E6 fused to the VP16 transcriptional activation domain (from UniProt P03126) H24R”, the percent of parent amounted to 79% in assay [1] and 57% in assay [2].
For “wildtype HPV16 E6 fused to the VP16 transcriptional activation domain (from UniProt P03126) R40A” the same measures were 110% and 120%.
Regarding “wildtype HPV16 E6 fused to the VP16 transcriptional activation domain (from UniProt P03126) V62A”, the percent of parent in assay [1] is 63%; in assay [2] it was 61%.
For “wildtype HPV16 E6 fused to the VP16 transcriptional activation domain (from UniProt P03126) H24Q”, the percent of parent in assay [1] came out at 87%; in assay [2], 74%.
Taken in the same sequence, the figures for “wildtype HPV16 E6 fused to the VP16 transcriptional activation domain (from UniProt P03126) T133A” were 150% and 130%.
As to “wildtype HPV16 E6 fused to the VP16 transcriptional activation domain (from UniProt P03126) V53E”, the percent of parent in assay [1] was determined as 45%; in assay [2], 7%.
In the case of “wildtype HPV16 E6 fused to the VP16 transcriptional activation domain (from UniProt P03126) D120A”, the percent of parent in assay [1] is 120%; in assay [2], 100%.
As for “wildtype HPV16 E6 fused to the VP16 transcriptional activation domain (from UniProt P03126) R129A”, the figures for the percent of parent in assay [1] and in assay [2] were 290% and 190%, respectively.
In the case of “wildtype HPV16 E6 fused to the VP16 transcriptional activation domain (from UniProt P03126) I23Q”, the percent of parent in assay [1] was 66%; in assay [2], 70%.
As to “wildtype HPV16 E6 fused to the VP16 transcriptional activation domain (from UniProt P03126) R129E”, the results for the percent of parent in assay [1] and in assay [2] were 110% and 120%, respectively.
As for “wildtype HPV16 E6 fused to the VP16 transcriptional activation domain (from UniProt P03126) N105A”, the percent of parent in assay [1] was 80%; in assay [2], 110%.
Take “wildtype HPV16 E6 fused to the VP16 transcriptional activation domain (from UniProt P03126) H126E”: the percent of parent in assay [1] is 63%; in assay [2] it was 98%.
As to “wildtype HPV16 E6 fused to the VP16 transcriptional activation domain (from UniProt P03126) L67A”, the percent of parent stood at 48% in assay [1] and 46% in assay [2].
On to “wildtype HPV16 E6 fused to the VP16 transcriptional activation domain (from UniProt P03126) L50E”, for which the values for the percent of parent in assay [1] and in assay [2] were 42% and 5%, respectively.
As for “wildtype HPV16 E6 fused to the VP16 transcriptional activation domain (from UniProt P03126) D44R”, the percent of parent in assay [1] was 67%; in assay [2], 45%.
For the substance “wildtype HPV16 E6 fused to the VP16 transcriptional activation domain (from UniProt P03126) R48A”, the figures for the percent of parent in assay [1] and in assay [2] were 98% and 110%, respectively.
In the case of “wildtype HPV16 E6 fused to the VP16 transcriptional activation domain (from UniProt P03126) C140E”, the percent of parent in assay [1] was 140%; in assay [2], 150%.
Taken in the same sequence, the figures for “wildtype HPV16 E6 fused to the VP16 transcriptional activation domain (from UniProt P03126) R102E” were 43% and 10%.
As for “wildtype HPV16 E6 fused to the VP16 transcriptional activation domain (from UniProt P03126) I128E”, the percent of parent was 48% in assay [1] and 10% in assay [2].
Take “wildtype HPV16 E6 fused to the VP16 transcriptional activation domain (from UniProt P03126) K34E”: the values for the percent of parent in assay [1] and in assay [2] were 74% and 120%, respectively.
Taken in the same sequence, the figures for “wildtype HPV16 E6 fused to the VP16 transcriptional activation domain (from UniProt P03126) Q107A” were 79% and 100%.
As for “wildtype HPV16 E6 fused to the VP16 transcriptional activation domain (from UniProt P03126) D64A”, the percent of parent in assay [1] turned out to be 64%; in assay [2] it was 60%.
“wildtype HPV16 E6 fused to the VP16 transcriptional activation domain (from UniProt P03126) S74R”: the percent of parent came out at 70% in assay [1] and 64% in assay [2].
For “wildtype HPV16 E6 fused to the VP16 transcriptional activation domain (from UniProt P03126) I128A” the same measures were 52% and 17%.
Regarding “wildtype HPV16 E6 fused to the VP16 transcriptional activation domain (from UniProt P03126) L38E”, the percent of parent in assay [1] is 170%; in assay [2], 140%.
On to “wildtype HPV16 E6 fused to the VP16 transcriptional activation domain (from UniProt P03126) R39A”, for which the percent of parent was found to be 78% in assay [1] and 89% in assay [2].
For “wildtype HPV16 E6 fused to the VP16 transcriptional activation domain (from UniProt P03126) Q35R” the same measures were 120% and 100%.
